The supplement of paper PMC9112550, “Optimization of the antimicrobial peptide Bac7 by deep mutational scanning” (BMC Biology, 2022)

Tested on: Escherichia coli TOP10
Test: shrunken log2 fold change of peptide-encoding DNA abundance (4.5 h post-induction vs induction); higher = less antimicrobial activity (less host growth inhibition)
Settings: time post-induction: 4.5 h; library: site-saturation at positions 5, 18, 19, 20
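Also: peptides expressed intracellularly from a pBAD plasmid library in pooled LB shake-flask culture, induced with 0.3% L-arabinose, DNA abundance read by NGS, three biological replicates, DESeq2 with apeglm shrinkage.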

Sequence | shrunken log2 fold change
RRIRLRPPRLPRPRPRPKLIPRP | -0.219
RRIRLRPPRLPRPRPRPKLYPRP | 0.0148
RRIRLRPPRLPRPRPRPKMLPRP | -0.0541
RRIRLRPPRLPRPRPRPKMRPRP | 0.608
RRIRLRPPRLPRPRPRPKNWPRP | -0.0113
RRIRLRPPRLPRPRPRPKQAPRP | 0.152
RRIRLRPPRLPRPRPRPKQRPRP | 0.225
RRIRLRPPRLPRPRPRPKRHPRP | 0.208
RRIRLRPPRLPRPRPRPKVWPRP | 0.0698
RRIRLRPPRLPRPRPRPKWAPRP | -0.0391
RRIRLRPPRLPRPRPRPKWYPRP | -0.299
RRIRLRPPRLPRPRPRPKYAPRP | 0.0149
RRIRLRPPRLPRPRPRPKYNPRP | -0.703
RRIRLRPPRLPRPRPRPKYTPRP | -0.61
RRIRLRPPRLPRPRPRPLEEPRP | 0.543
RRIRLRPPRLPRPRPRPLGHPRP | -0.0858
RRIRLRPPRLPRPRPRPLGVPRP | 0.0325
RRIRLRPPRLPRPRPRPLGWPRP | 0.584
RRIRLRPPRLPRPRPRPLHFPRP | -0.197
RRIRLRPPRLPRPRPRPLIDPRP | -0.258
RRIRLRPPRLPRPRPRPLIYPRP | -0.832
RRIRLRPPRLPRPRPRPLKDPRP | -0.0949
RRIRLRPPRLPRPRPRPLKSPRP | -0.146
RRIRLRPPRLPRPRPRPLLRPRP | 0.196
RRIRLRPPRLPRPRPRPLLWPRP | 0.195

Sequence | shrunken log2 fold change
RRIRLRPPRLPRPRPRPLMFPRP | -0.215
RRIRLRPPRLPRPRPRPLMPPRP | -0.0944
RRIRLRPPRLPRPRPRPLNAPRP | -0.0775
RRIRLRPPRLPRPRPRPLNWPRP | -0.0552
RRIRLRPPRLPRPRPRPLPFPRP | -0.289
RRIRLRPPRLPRPRPRPLPKPRP | 0.393
RRIRLRPPRLPRPRPRPLRFPRP | 0.477
RRIRLRPPRLPRPRPRPLRKPRP | 0.183
RRIRLRPPRLPRPRPRPLRRPRP | 0.249
RRIRLRPPRLPRPRPRPLSNPRP | -0.782
RRIRLRPPRLPRPRPRPLSRPRP | -0.247
RRIRLRPPRLPRPRPRPLVIPRP | -0.33
RRIRLRPPRLPRPRPRPLVLPRP | -0.355
RRIRLRPPRLPRPRPRPLVRPRP | -0.105
RRIRLRPPRLPRPRPRPLVTPRP | 0.000277
RRIRLRPPRLPRPRPRPLWKPRP | -0.0337
RRIRLRPPRLPRPRPRPLWPPRP | 0.302
RRIRLRPPRLPRPRPRPMCMPRP | -0.451
RRIRLRPPRLPRPRPRPMENPRP | -0.105
RRIRLRPPRLPRPRPRPMEVPRP | -0.0152
RRIRLRPPRLPRPRPRPMGPPRP | 0.015
RRIRLRPPRLPRPRPRPMGSPRP | -0.000911
RRIRLRPPRLPRPRPRPMHEPRP | -0.0688
RRIRLRPPRLPRPRPRPMHGPRP | 0.0554
RRIRLRPPRLPRPRPRPMHIPRP | 0.0952

Sequence | shrunken log2 fold change
RRIRLRPPRLPRPRPRPMHVPRP | -0.0348
RRIRLRPPRLPRPRPRPMIGPRP | 0.0237
RRIRLRPPRLPRPRPRPMLFPRP | -0.136
RRIRLRPPRLPRPRPRPMLWPRP | 0.00318
RRIRLRPPRLPRPRPRPMMTPRP | -0.042
RRIRLRPPRLPRPRPRPMRDPRP | 0.336
RRIRLRPPRLPRPRPRPMRWPRP | 0.278
RRIRLRPPRLPRPRPRPMSWPRP | 0.0708
RRIRLRPPRLPRPRPRPMVRPRP | 0.0341
RRIRLRPPRLPRPRPRPMVTPRP | 0.0098
RRIRLRPPRLPRPRPRPMWCPRP | 0.214
RRIRLRPPRLPRPRPRPMWQPRP | 0.0197
RRIRLRPPRLPRPRPRPNAFPRP | 0.00952
RRIRLRPPRLPRPRPRPNASPRP | 0.0769
RRIRLRPPRLPRPRPRPNAYPRP | 0.0618
RRIRLRPPRLPRPRPRPNEEPRP | 0.00826
RRIRLRPPRLPRPRPRPNFQPRP | -0.0242
RRIRLRPPRLPRPRPRPNGAPRP | 0.0311
RRIRLRPPRLPRPRPRPNGRPRP | -0.192
RRIRLRPPRLPRPRPRPNHAPRP | -0.0276
RRIRLRPPRLPRPRPRPNHMPRP | -0.326
RRIRLRPPRLPRPRPRPNHPPRP | -0.498
RRIRLRPPRLPRPRPRPNIDPRP | -0.213
RRIRLRPPRLPRPRPRPNKPPRP | -0.0372
RRIRLRPPRLPRPRPRPNMHPRP | -0.565

Sequence | shrunken log2 fold change
RRIRLRPPRLPRPRPRPNMLPRP | -0.58
RRIRLRPPRLPRPRPRPNMVPRP | -0.126
RRIRLRPPRLPRPRPRPNNLPRP | -0.177
RRIRLRPPRLPRPRPRPNPLPRP | 0.256
RRIRLRPPRLPRPRPRPNRGPRP | -0.00212
RRIRLRPPRLPRPRPRPNSHPRP | -0.404
RRIRLRPPRLPRPRPRPNTDPRP | -0.371
RRIRLRPPRLPRPRPRPNYVPRP | -0.566
RRIRLRPPRLPRPRPRPPAIPRP | 2.54
RRIRLRPPRLPRPRPRPPCLPRP | 0.0124
RRIRLRPPRLPRPRPRPPCPPRP | 0.316
RRIRLRPPRLPRPRPRPPDHPRP | 0.0205
RRIRLRPPRLPRPRPRPPDNPRP | 0.0299
RRIRLRPPRLPRPRPRPPEQPRP | -0.0138
RRIRLRPPRLPRPRPRPPEYPRP | -0.26
RRIRLRPPRLPRPRPRPPFKPRP | 0.0605
RRIRLRPPRLPRPRPRPPGDPRP | 0.834
RRIRLRPPRLPRPRPRPPHWPRP | 0.38
RRIRLRPPRLPRPRPRPPKMPRP | 0.159
RRIRLRPPRLPRPRPRPPLSPRP | -0.00759
RRIRLRPPRLPRPRPRPPMCPRP | 0.202
RRIRLRPPRLPRPRPRPPMNPRP | -0.114
RRIRLRPPRLPRPRPRPPMPPRP | 0.0906
RRIRLRPPRLPRPRPRPPNDPRP | 0.0552
RRIRLRPPRLPRPRPRPPNWPRP | 0.377

Sequence | shrunken log2 fold change
RRIRLRPPRLPRPRPRPPPAPRP | 1.52
RRIRLRPPRLPRPRPRPPPGPRP | 1.29
RRIRLRPPRLPRPRPRPPPQPRP | 1.12
RRIRLRPPRLPRPRPRPPQKPRP | 0.131
RRIRLRPPRLPRPRPRPPQSPRP | 0.0818
RRIRLRPPRLPRPRPRPPREPRP | 0.544
RRIRLRPPRLPRPRPRPPRFPRP | 0.209
RRIRLRPPRLPRPRPRPPRMPRP | 0.232
RRIRLRPPRLPRPRPRPPSVPRP | -0.0845
RRIRLRPPRLPRPRPRPPTVPRP | 0.026
RRIRLRPPRLPRPRPRPPVAPRP | 0.387
RRIRLRPPRLPRPRPRPPVFPRP | 0.0392
RRIRLRPPRLPRPRPRPPVTPRP | 0.353
RRIRLRPPRLPRPRPRPQACPRP | 0.00768
RRIRLRPPRLPRPRPRPQAIPRP | -0.152
RRIRLRPPRLPRPRPRPQANPRP | -0.289
RRIRLRPPRLPRPRPRPQAVPRP | 0.0328
RRIRLRPPRLPRPRPRPQCCPRP | 0.0421
RRIRLRPPRLPRPRPRPQDAPRP | 0.0335
RRIRLRPPRLPRPRPRPQFYPRP | -0.727
RRIRLRPPRLPRPRPRPQGMPRP | -0.0379
RRIRLRPPRLPRPRPRPQHFPRP | -0.343
RRIRLRPPRLPRPRPRPQKAPRP | 0.000116
RRIRLRPPRLPRPRPRPQKIPRP | 0.0459
RRIRLRPPRLPRPRPRPQPFPRP | -1.07

Sequence | shrunken log2 fold change
RRIRLRPPRLPRPRPRPQQEPRP | 0.0119
RRIRLRPPRLPRPRPRPQQWPRP | -0.0673
RRIRLRPPRLPRPRPRPQRIPRP | -0.141
RRIRLRPPRLPRPRPRPQSVPRP | -0.325
RRIRLRPPRLPRPRPRPQTHPRP | 0.0338
RRIRLRPPRLPRPRPRPQTVPRP | -0.211
RRIRLRPPRLPRPRPRPQVCPRP | -0.00713
RRIRLRPPRLPRPRPRPQVVPRP | -0.252
RRIRLRPPRLPRPRPRPQYMPRP | -0.0107
RRIRLRPPRLPRPRPRPRARPRP | 0.619
RRIRLRPPRLPRPRPRPRATPRP | 0.228
RRIRLRPPRLPRPRPRPRAWPRP | 0.41
RRIRLRPPRLPRPRPRPREGPRP | 0.966
RRIRLRPPRLPRPRPRPREVPRP | 0.59
RRIRLRPPRLPRPRPRPRFVPRP | 0.123
RRIRLRPPRLPRPRPRPRGMPRP | 0.239
RRIRLRPPRLPRPRPRPRGQPRP | 0.533
RRIRLRPPRLPRPRPRPRGWPRP | 0.722
RRIRLRPPRLPRPRPRPRHHPRP | -0.0411
RRIRLRPPRLPRPRPRPRIIPRP | -1.12
RRIRLRPPRLPRPRPRPRLKPRP | 0.885
RRIRLRPPRLPRPRPRPRMGPRP | 0.135
RRIRLRPPRLPRPRPRPRMYPRP | -0.166
RRIRLRPPRLPRPRPRPRQQPRP | 0.319
RRIRLRPPRLPRPRPRPRQYPRP | -0.075
